Data on five molecules can be found in patent US20140087995A1 (published 2014).

The IC50 is the concentration at which inhibition is half-maximal. Read a low IC50 as greater potency in that assay.

First the molecules themselves.
T1: human amylin receptor (human, UniProt P30988 25-474; O60896 24-148, limits assumed)
T1 construct: whole, on cells; Calcitonin receptor plus RAMP-3 gives the amylin 3(a) receptor; membranes of Amylin 3(a)/CRE-luc cells were used; also called hAmylin-R; hAmylinR
T1 sequence (looked up) 1: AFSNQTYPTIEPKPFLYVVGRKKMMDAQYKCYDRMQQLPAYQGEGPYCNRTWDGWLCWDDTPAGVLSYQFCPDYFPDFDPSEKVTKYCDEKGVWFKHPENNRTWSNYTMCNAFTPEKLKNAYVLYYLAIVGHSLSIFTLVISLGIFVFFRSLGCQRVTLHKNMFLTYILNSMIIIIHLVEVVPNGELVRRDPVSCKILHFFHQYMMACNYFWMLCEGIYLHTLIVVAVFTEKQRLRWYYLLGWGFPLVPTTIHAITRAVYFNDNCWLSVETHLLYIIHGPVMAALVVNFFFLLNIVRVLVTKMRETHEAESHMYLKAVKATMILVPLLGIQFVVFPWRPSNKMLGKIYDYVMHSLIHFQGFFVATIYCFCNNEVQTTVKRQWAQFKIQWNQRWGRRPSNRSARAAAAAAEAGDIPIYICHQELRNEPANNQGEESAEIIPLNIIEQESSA
T1 sequence (looked up) 2: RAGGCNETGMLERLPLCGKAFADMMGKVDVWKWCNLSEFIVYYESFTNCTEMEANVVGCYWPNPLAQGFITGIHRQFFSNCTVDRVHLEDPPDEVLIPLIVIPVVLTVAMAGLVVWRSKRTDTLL

B1: N^ε1-[(4S)-4-carboxy-4-(19-carboxynonadecanoylamino)butanoyl]-[His14,Arg17,Pro21,Pro27,His34]-h-amylin (peptide)
peptide: K([γGlu-C20 diacid])CNTATCATQRLAHFLRHSSPNFGAIPSSTNVGHNTY-NH2
modifications: disulfide 2-7; N-terminus assumed
SMILES: CC[C@H](C)[C@H](NC(=O)[C@H](C)NC(=O)CNC(=O)[C@H](Cc1ccccc1)NC(=O)[C@H](CC(N)=O)NC(=O)[C@@H]1CCCN1C(=O)[C@H](CO)NC(=O)[C@H](CO)NC(=O)[C@H](Cc1c[nH]cn1)NC(=O)[C@H](CCCNC(=N)N)NC(=O)[C@H](CC(C)C)NC(=O)[C@H](Cc1ccccc1)NC(=O)[C@H](Cc1c[nH]cn1)NC(=O)[C@H](C)NC(=O)[C@H](CC(C)C)NC(=O)[C@H](CCCNC(=N)N)NC(=O)[C@H](CCC(N)=O)NC(=O)[C@@H](NC(=O)[C@H](C)NC(=O)[C@@H]1CSSC[C@H](NC(=O)[C@@H](N)CCCCNC(=O)CC[C@H](NC(=O)CCCCCCCCCCCCCCCCCCC(=O)O)C(=O)O)C(=O)N[C@@H](CC(N)=O)C(=O)N[C@@H]([C@@H](C)O)C(=O)N[C@@H](C)C(=O)N[C@@H]([C@@H](C)O)C(=O)N1)[C@@H](C)O)C(=O)N1CCC[C@H]1C(=O)N[C@@H](CO)C(=O)N[C@@H](CO)C(=O)N[C@H](C(=O)N[C@@H](CC(N)=O)C(=O)N[C@H](C(=O)NCC(=O)N[C@@H](Cc1c[nH]cn1)C(=O)N[C@@H](CC(N)=O)C(=O)N[C@H](C(=O)N[C@@H](Cc1ccc(O)cc1)C(N)=O)[C@@H](C)O)C(C)C)[C@@H](C)O
notes: also called 14H, 17R, 21P, 27P, 34H
B2: N^ε1-[(4S)-4-carboxy-4-(19-carboxynonadecanoylamino)butanoyl]-[His14,Arg17,Pro21,Pro27,Pro31,Pro34]-h-amylin (peptide)
peptide: K([γGlu-C20 diacid])CNTATCATQRLAHFLRHSSPNFGAIPSSTPVGPNTY-NH2
modifications: disulfide 2-7; N-terminus assumed
SMILES: CC[C@H](C)[C@H](NC(=O)[C@H](C)NC(=O)CNC(=O)[C@H](Cc1ccccc1)NC(=O)[C@H](CC(N)=O)NC(=O)[C@@H]1CCCN1C(=O)[C@H](CO)NC(=O)[C@H](CO)NC(=O)[C@H](Cc1c[nH]cn1)NC(=O)[C@H](CCCNC(=N)N)NC(=O)[C@H](CC(C)C)NC(=O)[C@H](Cc1ccccc1)NC(=O)[C@H](Cc1c[nH]cn1)NC(=O)[C@H](C)NC(=O)[C@H](CC(C)C)NC(=O)[C@H](CCCNC(=N)N)NC(=O)[C@H](CCC(N)=O)NC(=O)[C@@H](NC(=O)[C@H](C)NC(=O)[C@@H]1CSSC[C@H](NC(=O)[C@@H](N)CCCCNC(=O)CC[C@H](NC(=O)CCCCCCCCCCCCCCCCCCC(=O)O)C(=O)O)C(=O)N[C@@H](CC(N)=O)C(=O)N[C@@H]([C@@H](C)O)C(=O)N[C@@H](C)C(=O)N[C@@H]([C@@H](C)O)C(=O)N1)[C@@H](C)O)C(=O)N1CCC[C@H]1C(=O)N[C@@H](CO)C(=O)N[C@@H](CO)C(=O)N[C@H](C(=O)N1CCC[C@H]1C(=O)N[C@H](C(=O)NCC(=O)N1CCC[C@H]1C(=O)N[C@@H](CC(N)=O)C(=O)N[C@H](C(=O)N[C@@H](Cc1ccc(O)cc1)C(N)=O)[C@@H](C)O)C(C)C)[C@@H](C)O
notes: also called 14H, 17R, 21P, 27P, 31P, 34P
B3: N^ε1-[(4S)-4-carboxy-4-(19-carboxynonadecanoylamino)butanoyl]-[His14,Arg17,Pro21,Pro27,Pro31]-h-amylin (peptide)
peptide: K([γGlu-C20 diacid])CNTATCATQRLAHFLRHSSPNFGAIPSSTPVGSNTY-NH2
modifications: disulfide 2-7; N-terminus assumed
SMILES: CC[C@H](C)[C@H](NC(=O)[C@H](C)NC(=O)CNC(=O)[C@H](Cc1ccccc1)NC(=O)[C@H](CC(N)=O)NC(=O)[C@@H]1CCCN1C(=O)[C@H](CO)NC(=O)[C@H](CO)NC(=O)[C@H](Cc1c[nH]cn1)NC(=O)[C@H](CCCNC(=N)N)NC(=O)[C@H](CC(C)C)NC(=O)[C@H](Cc1ccccc1)NC(=O)[C@H](Cc1c[nH]cn1)NC(=O)[C@H](C)NC(=O)[C@H](CC(C)C)NC(=O)[C@H](CCCNC(=N)N)NC(=O)[C@H](CCC(N)=O)NC(=O)[C@@H](NC(=O)[C@H](C)NC(=O)[C@@H]1CSSC[C@H](NC(=O)[C@@H](N)CCCCNC(=O)CC[C@H](NC(=O)CCCCCCCCCCCCCCCCCCC(=O)O)C(=O)O)C(=O)N[C@@H](CC(N)=O)C(=O)N[C@@H]([C@@H](C)O)C(=O)N[C@@H](C)C(=O)N[C@@H]([C@@H](C)O)C(=O)N1)[C@@H](C)O)C(=O)N1CCC[C@H]1C(=O)N[C@@H](CO)C(=O)N[C@@H](CO)C(=O)N[C@H](C(=O)N1CCC[C@H]1C(=O)N[C@H](C(=O)NCC(=O)N[C@@H](CO)C(=O)N[C@@H](CC(N)=O)C(=O)N[C@H](C(=O)N[C@@H](Cc1ccc(O)cc1)C(N)=O)[C@@H](C)O)C(C)C)[C@@H](C)O
notes: also called 14H, 17R, 21P, 27P, 31P
B4: N^ε1-[(4S)-4-carboxy-4-(19-carboxynonadecanoylamino)butanoyl]-[His14,Arg17,Pro21,Pro27,His35]-h-amylin (peptide)
peptide: K([γGlu-C20 diacid])CNTATCATQRLAHFLRHSSPNFGAIPSSTNVGSHTY-NH2
modifications: disulfide 2-7; N-terminus assumed
SMILES: CC[C@H](C)[C@H](NC(=O)[C@H](C)NC(=O)CNC(=O)[C@H](Cc1ccccc1)NC(=O)[C@H](CC(N)=O)NC(=O)[C@@H]1CCCN1C(=O)[C@H](CO)NC(=O)[C@H](CO)NC(=O)[C@H](Cc1c[nH]cn1)NC(=O)[C@H](CCCNC(=N)N)NC(=O)[C@H](CC(C)C)NC(=O)[C@H](Cc1ccccc1)NC(=O)[C@H](Cc1c[nH]cn1)NC(=O)[C@H](C)NC(=O)[C@H](CC(C)C)NC(=O)[C@H](CCCNC(=N)N)NC(=O)[C@H](CCC(N)=O)NC(=O)[C@@H](NC(=O)[C@H](C)NC(=O)[C@@H]1CSSC[C@H](NC(=O)[C@@H](N)CCCCNC(=O)CC[C@H](NC(=O)CCCCCCCCCCCCCCCCCCC(=O)O)C(=O)O)C(=O)N[C@@H](CC(N)=O)C(=O)N[C@@H]([C@@H](C)O)C(=O)N[C@@H](C)C(=O)N[C@@H]([C@@H](C)O)C(=O)N1)[C@@H](C)O)C(=O)N1CCC[C@H]1C(=O)N[C@@H](CO)C(=O)N[C@@H](CO)C(=O)N[C@H](C(=O)N[C@@H](CC(N)=O)C(=O)N[C@H](C(=O)NCC(=O)N[C@@H](CO)C(=O)N[C@@H](Cc1c[nH]cn1)C(=O)N[C@H](C(=O)N[C@@H](Cc1ccc(O)cc1)C(N)=O)[C@@H](C)O)C(C)C)[C@@H](C)O
notes: also called 14H, 17R, 21P, 27P, 35H
B5: N^ε1-[(4S)-4-carboxy-4-(19-carboxynonadecanoylamino)butanoyl]-[His14,Arg17,Pro21,Pro27,Pro34,Pro37]-h-amylin (peptide)
peptide: K([γGlu-C20 diacid])CNTATCATQRLAHFLRHSSPNFGAIPSSTNVGPNTP-NH2
modifications: disulfide 2-7; N-terminus assumed
SMILES: CC[C@H](C)[C@H](NC(=O)[C@H](C)NC(=O)CNC(=O)[C@H](Cc1ccccc1)NC(=O)[C@H](CC(N)=O)NC(=O)[C@@H]1CCCN1C(=O)[C@H](CO)NC(=O)[C@H](CO)NC(=O)[C@H](Cc1c[nH]cn1)NC(=O)[C@H](CCCNC(=N)N)NC(=O)[C@H](CC(C)C)NC(=O)[C@H](Cc1ccccc1)NC(=O)[C@H](Cc1c[nH]cn1)NC(=O)[C@H](C)NC(=O)[C@H](CC(C)C)NC(=O)[C@H](CCCNC(=N)N)NC(=O)[C@H](CCC(N)=O)NC(=O)[C@@H](NC(=O)[C@H](C)NC(=O)[C@@H]1CSSC[C@H](NC(=O)[C@@H](N)CCCCNC(=O)CC[C@H](NC(=O)CCCCCCCCCCCCCCCCCCC(=O)O)C(=O)O)C(=O)N[C@@H](CC(N)=O)C(=O)N[C@@H]([C@@H](C)O)C(=O)N[C@@H](C)C(=O)N[C@@H]([C@@H](C)O)C(=O)N1)[C@@H](C)O)C(=O)N1CCC[C@H]1C(=O)N[C@@H](CO)C(=O)N[C@@H](CO)C(=O)N[C@H](C(=O)N[C@@H](CC(N)=O)C(=O)N[C@H](C(=O)NCC(=O)N1CCC[C@H]1C(=O)N[C@@H](CC(N)=O)C(=O)N[C@H](C(=O)N1CCC[C@H]1C(N)=O)[C@@H](C)O)C(C)C)[C@@H](C)O
notes: also called 14H, 17R, 21P, 27P, 34P, 37P

Numbered stars: 1 amine (or outer) side, 2 acyl side, 3 side chain; on linkers, the order of the positions; unused ones are H or OH. Bridge positions count the residues as written; N and C are the ends. Side chains are listed from the residue outwards. Ends that are not written are not given here. * marks the point of attachment. C20 diacid = O=C(O)CCCCCCCCCCCCCCCCCCC(=O)*; γGlu = O=C(O)[C@H](CCC(=O)[*:2])N[*:1]

The assay concerns the target T1, human amylin receptor. Kind of assay: SPA competition binding, displacement of 125I-rat amylin from membranes with human amylin 3(a) receptor (Assay V). A digest of the protocol: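 Membranes from BHK Amylin 3(a)/CRE-luc cells (35 ng/μL final) were mixed with SPA beads and test compounds in 50 mM Hepes pH 7.4 with 1 mM CaCl2, 5 mM MgCl₂, 0.1% OA and 0.02% Tween20. Incubation ran 120 min at 25° C with shaking; IC₅₀ came from one-site competition fitting.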
(In general: Displacement assays read how much labelled ligand stays bound in the presence of the test substance.)
On to B1, for which the IC50 was found to be 0.271 nM.
The value for B2 was 0.082 nM.
Next, B3: 0.098 nM; B4: 0.396 nM; B5: 0.131 nM.
